Results from patent US20230175000, “MAIZE GENE ZMRAVL1 AND FUNCTIONAL SITE AND USE THEREOF” (CHINA AGRICULTURAL UNIVERSITY, published 2023).

Target: T1, DRL1 (Drooping leaf1, YABBY C2C2) (Zea mays, UniProt A0A804LG43 A0A804LG43:1-207)
T1 sequence: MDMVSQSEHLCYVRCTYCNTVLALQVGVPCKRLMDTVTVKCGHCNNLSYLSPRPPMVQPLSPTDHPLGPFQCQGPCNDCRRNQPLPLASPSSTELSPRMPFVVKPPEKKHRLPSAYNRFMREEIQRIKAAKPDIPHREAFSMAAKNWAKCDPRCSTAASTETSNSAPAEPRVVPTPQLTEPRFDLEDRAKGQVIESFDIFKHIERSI
Assay: EMSA; room temperature 20 min; band slightly brighter than W22 probe; competed by unlabeled probe
Conditions: tags: His fusion (PET32a, E. coli Rosetta, nickel beads); label: biotin
Method: EMSA (electrophoretic mobility shift assay) was carried out to validate the above speculation. First of all, biotin-labeled EMSA probes (UPA2-NIL^W22 biotin probes: UPA2-NIL^W22-F, UPA2-NIL^W22-R; UPA2-NIL^W22 competitive probe: UPA2-NIL^W22-com-F, UPA2-NIL^W22-com-R; UPA2-NIL⁸⁷⁵⁹ biotin probes: UPA2-NIL⁸⁷⁵⁹-F, UPA2-NIL⁸⁷⁵⁹-R; UPA2-NIL⁸⁷⁵⁹ competitive probe: UPA2-NIL⁸⁷⁵⁹-com-F, UPA2-NIL⁸⁷⁵⁹-com-R) were designed for the sequences of UPA2-NIL^W22 and UPA2-NIL⁸⁷⁵⁹ respectively. The probe included a C2C2-binding motif and upstream and downstream flanking sequences (each 22 bp). In the meantime, the corresponding sequences that were not labeled with biotin were synthesized as competitive probes. Next, the DRL1 CDS region was recombined onto a PET32a prokaryotic expression vector by a homologous recombination method to construct an expression vector of DRL1-His fusion proteins and it was introduced into the expression strain Rosetta to induce the expression of the DRL1-His fusion proteins. Finally, the DRL1-His fusion proteins were obtained through purification using Nickel beads. […]

B1: UPA2-NIL8759 probe (dsDNA)
DNA 1: AACTGCGCATGCGCGCGCTGAGTGTGGTCCTTCTCTTTTAATTACTACTG
DNA 2: CAGTAGTAATTAAAAGAGAAGGACCACACTCAGCGCGCGCATGCGCAGTT
- binding result: binds
